20 sequences from the DeepSol protein solubility set can be followed below.

The nature of this series: soluble on expression in E. coli; label from the status in PepcDB or PDB records.
“SNAMSTHVTFDYSKALSFIGEHEITYLRDAVKVTHHAIHEKTGAGNDFLGWVDLPLQYDKEEFARIQKCAEKIKNDSDILLVVGIGGSYLGARAAIEMLNHSFYNTLSKEQRKTPQVLFVGQNISSTYMKDLMDVLEGKDFSINVISKSGTTTEPALAFRIFRKLLEEKYGKEEARKRIYATTDKARGALKTLADNEGYETFVIPDDVGGRFSVLTPVGLLPIAVSGLNIEEMMKGAAAGRDDFGTSELEENPAYQYAVVRNALYNKGKTIEMLINYEPALQYFAEWWKQLFGESEGKDQKGIFPSSANFSTDLHSLGQYVQEGRRDLFETVLKVGKSTHELTIESEENDLDGLNYLAGETVDFVNTKAYEGTLLAHSDGGVPNLIVNIPELNEYTFGYLVYFFEKACAMSGYLLGVNPFDQPGVEAYKKNMFALLGKPGFEELKAELEERLK”: the “soluble on expression in E. coli” value is “soluble”. Take “MGSDKIHHHHHHMDYRMCWLEYRGLPADVAGKLKDWFSSVSILEPGSSVLKDEIRRFSERSIGITPRFYSRPLKKEKYIMVGRLESLPIKLDVNLGEEGFMLRTIEWNGSKILLVTGETKKALVYGIFDLMKRIRLGEDIEKMNVLAKPKAKFRMLNHWDNLDGTIERGYAGNSIFFKDNRIIINQRTKDYARLLASIGINGVVINNVNVKKREVYLIDSIYLKKLKKLADIFREYGIKIYLSINFASPVYLGGLDTADPLDERVARWWREKARGIYDYIPDFGGFLVKADSEFNPGPHMFGRTHAEGANMLARALAPFGGVVIWRAFVYNCLQDWRDYKTDRAKAAYDNFKPLDGQFDDNVIIQIKYGPMDFQVREPVNPLFGGMEKTNQILELQITQEYTGQQIHLCFLGTLWKEILEFDTFAKGEGSYVKRIVDGTLFDRENNGFAGVSNVGDSVNWTGHDLAQANLYAFGRLAWNPDEEIERIVEEWIKLTFGDDEKVLENVSYMLMKSHRTYEKYTTPFGLGWMVNPGHHYGPNPEGYEYSKWGTYHRANWEAIGVDRTSRGTGYTLQYHSPWKEIYDDINTCPEDLLLFFHRVRYDHRLKSGKTLLQTMYDLHFEGVEEVEEFIKKWEELKDRVSPDIFERVKERLHMQLEHAKEWRDVINTYFYRRTGIPDEKGRKIYP”: the “soluble on expression in E. coli” value is “not soluble”. Next, “MSLKLLVLIDGSKWSQKAALHAFSIAKRKNAKVILFSVLDRREAKALAFHLSMRSDSLGKIKEFEETIWRETKKSVKEVITTLLELGRREGINCSFKIVEGSAKEEIIKEANSGKYSMVIMGAYGRSGKTRIGSLLEEVVGQIRIPVMIVREGHHHHHH”: “soluble”.

For the sequence “MKLLKVAAIAAIVFSGSALAGVVPQYGGGGGNHGGGGNNSGPNSELNIYQYGGGNSALALQADARNSDLTITQHGGGNGADVGQGSDDSSIDLTQRGFGNSATLDQWNGKDSHMTVKQFGGGNGAAVDQTASNSTVNVTQVGFGNNATAHQY”, the “soluble on expression in E. coli” value was “not soluble”.

“MGSDKIHHHHHHMNKEVDLSVSCLGKVKELKYDVIILPWGATEPHNLHLPYLTDCILPHDIAVEAAELALSRSGVRCMVMPPVPFGAHNPGQRELPFCIHTRYATQQAILEDIVSSLHVQGFRKLLILSGHGGNNFKGMIRDLAFEYPDFLIAAANWFEVVSPKGYFEAEIDDHAGESETSVMMHYHPELVNLAEAGDGESKPFAIASLNEKVAWVPRHWDKATVDSGVGNPKKATAEKGERYVKPIVEKLAGLFEEMAQHDLYE”: the “soluble on expression in E. coli” value was “not soluble”. Regarding “MAHHHHHHMLRRTSFNFTGRAMISRGSPEWSHRLDLKKGKKTTMMHKLGTSKPNNALQYAQMTLHDLTEWCLAYSPWPLTFGLACCAVEMMHAYASRYDLDRFGIVPRPTPRQAEIIIVSGTVTNKMAPILRNIYVQMVNPKWVISMGSCANGGGYYHFSYAVLRGCERAIPVDFWIPGCPPSAESLVFCLHTLQKKIRWHEIQKYSVRD”, the “soluble on expression in E. coli” value is “not soluble”.

On to “MGSDKIHHHHHHMRILQIGKFYPIRGGIEKVMYDITMGLSQRQVYCDMLCASAEKQKPENLLLNDYARILCVSTWKKVAATMLSPAMIFRLRKINKEYDIIHIHHPDPMACLALFLSGYKGPVVLHWHSDILKQKMLLKLYSPLQNWLLRRAKVIVGTTPVYVQESPFLENIQRKVISVPIGIDEMKPVPGRVAQIKERYAGKKIIFSLGRLVEYKGYEYLIKASQKLNDDYIILIGGKGPLQEYLQSLIDELGVRKKVKLLGFIDDKDLPDYFGACDLFCLSSIWKTEAFGIVQIEAMSCGKPVIAMNIPESGVSWVNINRFSGINVKPEDADALAEAITAVLTDECLYEELARGARRRYETMFTKELMTELCLNLYSGVLDSSETDYPANKKE”, for which the “soluble on expression in E. coli” value is “not soluble”. Next, “MGHHHHHHSHGNLVTELIYVHSKLLIADDNTVIIGSANINDRSMLGKRDSEMAVIVQDTETVPSVMDGKEYQAGRFARGLRLQCFRVVLGYLDDPSEDIQDPVSDKFFKEVWVSTAARNATIYDKVFRCLPNDEVHNLIQLRDFINKPVLAKEDPIRAEEELKKIRGFLVQFPFYFLSEESLLPSVGTKEAIVPMEVWT”: “not soluble”; “MFENLTDRLSKTLKNISGKGRLTEDNIKDTLREVRMALLEADVALPVVRDFVNRVKEGAVGVEVSKSLTPGQEFIKIVRQQLEAVMGESNEALNLAAQPPAVILMAGLQGAGKTTSVGKLSKLLKERDKKKVLVVSADVYRPAAIKQLETLANDLGVDFFPSTPDQKPIDIANAAIDHAKKKFYDVLIVDTAGRLAIDEQMMAEIQALHKAINPVETLFVVDAMTGQDAADTAKAFGDALPLTGVILTKVDGDARGGAALSVRHITGKPIKFIGVGEKTDALEPFHPDRIASRILGMGDVLSLIEDLQRNVDQEKAEKLAKKFKEKKGFDLEDFREQLGQMKNMGGMMGMLDKLPGMSQLPADMKDKVDDRVFKQMEAIINSMTMKERQNPDLIKGSRKKRIAAGSGTQVQDVNRLLKQFTQMQKMMKKMQQGGMKGMMRNMQGLMGGGGRGGFGGGFFGR”: “not soluble”; “MQEKDCIFCKIVRGEVPAKKVYEDDKVLAFHDINPVAPVHILIIPKKHIMGIQTLEPEDECLVGHMFYVARKIAEDLGIAPDENLNKGYRLVFNVGKDAGQSVFHLHLHLIGGREMSWPPG”: “soluble”. Next, “MPPLTHQSLKCVIKHLEANARIQLSQRCPSLHKTEKLIPLTIYNLELDQCSVKINNTDYSLTLTSNNFSSPFDLDQFGAIDLDEVDVDGNDVLVDNRSFKEEKNRLLRMRIEIRKMPDGVEKQEATAAVVALEQLEDNRWLRREPTSSSMMNLSINSQFIIFRGEKLCYNMKLHQAFRYLVAKLFSGRRCPIQVKKLSVECKGILRVPADLRFKVSHLEILGSGVDKIVEAFKPLIGRIQTITVNDDFNISHPIFQTALILKNPNENLFGAASASNVRVENNEQFSSLSERVVDLIRIWQSHGHKIGTIWNFSMRSQEQALDSIMYLRRQLGASFSGHKNLSQYGRSAAISLNNSDEIYVSFKQQQIKVWNLKVVVRRKRL”: “not soluble”; “GPGSMGSEESNNICAYKRTISLAKIYIVLLVKTAMLRYSRLCFPKMGCEEIKRKARRVQLQPTEYLAQHRMQVWQLRFKEMGPPFSRVWVALGGKMRRRRVGRQVDVKDMRYYWRPIEPQYQRLYMSRLRIRDHSNKLRQPMRLRATNADIGSGSSSIEWERASNRKYGAMLAPPKRQDFEFRVV”: “not soluble”. The same measure for “MSLEFSDAELARASALQKRLVTLDSHLDTPANLERGDFDVMQGHAGNRLSQVDYPRMLEGALDGGFWAVYTGQGNRSAAAHLDDRDAGLQRLMKIHNLLAAQPQRFALATTPADAARIKAAGKRVVYISMENASPLVADPSLLRFYYAQGLRLMSTVHFLNNEFADSATDPKGAEWKGLSPAGKQLVQQALGIVIDQSHASDAVFDQLIALSPVPIVLSHSGARAVYNHPRNIDDARLKVLAAHGGVIQVNSYGGYLIDSGASPERKAAEKALADQYGGWEHLKMSDGTALSEALKALDARYPVKRATEEDFFAHLEHVLAVAGPAHVGIGMDWDGGGGVVGLEDVSDLPRITAWLLRKGYSEPQIAGIWGGNLLRVMEQAQAYAAGNRESGVGNREGHHHHHH”: “not soluble”; for “MGSDKIHHHHHHMPFLEIRLTKESGRIYEEHSHPMLSIGVMLEGETQFFLQGEEFRLQTGMLAVIPPRMAHACNPLPSQTRSYFILHLSLDFCLEIQGRLFNEGGQNLLPLRAPRIFDPMMYQGLTSLIQSLLKGYDSLKGEAFWGWCERFFARYTLEVSSRGDALISEVAEYLEGDVEEASLAFLSKRFQINPYTLERRFKKAYGTTPKRYHTDARLHRLKKLLRQGIPLALCAQYGGFSDQSHFQRFFKRRVALTPREYQLNFVQ”: “not soluble”; for “MSLVKLKNLTLYLWAVFVVGCTSVPEVSTQAQNPANNKTVSLAELNWQELSLPADINFEFNEKSQVLLDNNSTGPVASFVIPTDRGPVDMVLTSHVGKELTLYEPNVLVTNSKGGVFYHIKSNEFKYIPARLLDGDRVQKQFTIVPQIGADQVNVLIYTTSEDLKGSTTVIHPAKAFAIGTGTQPPMIPDLTAVHSEYGQLNLTVTAVSLTNRTPIRPAIDYVPEIEAKSAYYLNSIQNSVEQGDIDHAMTLVSEAEKLGIPSARATFINAVQSRNEHKEGHHHHHH”: “soluble”. Take “MKITAVETLYCNAGWRNLSFLKISTDEGLVGWAEFPENHINNVLSPLVRHMGQQILGEDPRRIHPVIDRLRRAAWGVPFGAVSRAIGAIENALVDIKAKAIGVPAYELIGGRMRDDIRMYWSHCGSYHVTNWKDLGVPRITSLDDVKSLGRQVRESGYHALKTNLMMFDRPEPYMYRPGFAGGSGDPDRNPLRSAISAAVDQMTAFREGAGPDIGLKLDVNFNFRPEGYIRLAHALEPVDLDWLEIDNFDAKAVAQVRRASRIPIASCETLSGRRQLRPYLEEQAVDVVIIDVPWNGIYEAMRMAALADSFEVNVATHNFCGPIATLISAHFCAAVPNFRVMEMDVVQVPWTNDLITNPPTIERGYMRLPDGPGWGADVNEEALRAHPPVAAKH”: the “soluble on expression in E. coli” value is “not soluble”. For the sequence “GMKLLLTRPEGKNAAMASALDALAIPYLVEPLLSVEAAAVTQAQLDELSRADILIFISTSAVSFATPWLKDQWPKATYYAVGDATADALALQGITAERSPADSQATEGLLTLPSLEQVSGKQIVIVRGKGGREAMADGLRLRGANVSYLEVYQRACPPLDAPASVSRWQSFGIDTIVVTSGEVLENLINLVPKDSFAWLRDCHIIVPSARVETQARKKGLRRVTNAGAANQAAVLDALGM”, the “soluble on expression in E. coli” value is “soluble”. Consider “GSHMSKDATKEISAPTDAKERSKAIETAMSQIEKAFGKGSIMKLGAESKLDVQVVSTGSLSLDLALGVGGIPRGRITEIYGPESGGKTTLALAIVAQAQKAGGTCAFIDAEHALDPVYARALGVNTDELLVSQPDNGEQALEIMELLVRSGAIDVVVVDSVAALTPRAEIEGDMGDSLPGLQARLMSQALRKLTAILSKTGTAAIFINQVREKIGVMYGNPETTTGGRALKFYASVRLDVRKIGQPTKVGNDAVANTVKIKTVKNKVAAPFKEVELALVYGKGFDQLSDLVGLAADMDIIKKAGSFYSYGDERIGQGKEKTIAYIAERPEMEQEIRDRVMAAIRAGNAGEAPALAPAPAAPEAAEA”, for which the “soluble on expression in E. coli” value is recorded as “soluble”. Next, “MGSDKIHHHHHHMREVHVNDIKEAVKEAIIEANCVLPREVRVAFQEALKREESPIGREVLTQILENAEIAQYYYMPYCQDTGVDVIFVFLGQDVHVVGGSLEDAINQGVREATEEGYLRASMVWDPVFERKNTKDNTPAIIHYEVVPGDRVKIVVAPKGAGSENTSRLAMLKPADGWEGVKKFILETVKFAGPNACPPFTVGVGIGGNFEYCAYLAKKALLRPVGKRHENPLIAKVEEELLEEINKIGWGPMGFGGTVTAVDVKVEMYPCHIASLPVAVNIQCHANRHAERVV”: “not soluble”; “MIHYRMDQPDRVRCSVCGGIADEVDETYPEEGDFILVIYRCRDCGHLEKRQYGKPVKIID”: “not soluble”.
